Assay results taken from patent publication WO2021173674A1.

Experiments:
[1] = molecular target: HLA-A*02 complexed with MAGE-A12 112-120 (…) on cells; assay: cell-based or functional assay
[2] = molecular target: HLA-A*02 complexed with EPS8L2 339-347 (…) on cells; assay: cell-based or functional assay

Work on “A118T TCR (MAGE-A3 112-120 clinical TCR)” yielded a potency in Jurkat/T2 cell assays, against the on-target MAGE-A3 peptide [1] of 10 fold, an EC50 in primary human T cell cytotoxicity on peptide-loaded MCF7 cells, against the on-target EC50 [2] of under 10 fold and a fold decrease in potency in Jurkat/T2 cell assays, against the on-target MAGE-A3 peptide [2] of 500 fold.
